Data as given in paper PMC10836395, “Investigation of how gate residues in the main channel affect the catalytic activity of Scytalidium thermophilum catalase” (Acta Crystallographica. Section D, Structural Biology, 2024).
Positions count from the first letter of the chain named. In names and notes the source's numbering stands.

B1: E484I (Mycothermus thermophilus; E503I) (protein)
chain: TCPFADPAALYSRQDTTSGQSPLAAYEVDDSTGYLTSDVGGPIQDQTSLKAGIRGPTLLEDFMFRQKIQHFDHERVPERAVHARGAGAHGTFTSYADWSNITAASFLNATGKQTPVFVRFSTVAGSRGSADTARDVHGFATRFYTDEGNFDIVGNNIPVFFIQDAIQFPDLIHSVKPRPDNEIPQAATAHDSAWDFFSQQPSTMHTLFWAMSGHGIPRSYRHMDGFGVHTFRFVKDDGSSKLIKWHFKSRQGKASLVWEEAQVLSGKNADFHRQDLWDAIESGNGPEWDVCVQIVDESQAQAFGFDLLDPTKIIPEEYAPLTKLGLLKLDRNPTNYFAETEQVMFQPGHIVRGIDFTEDPLLQGRLFSYLDTQLNRNGGPNFEQLPINMPRVPIHNNNRDGAGQMFIHRNKYPYTPNTLNSGYPRQANQNAGRGFFTAPGRTASGALVREVSPTFNDHWSQPRLFFNSLTPVEQQFLVNAMRFIISLVKSEEVKKNVLTQLNRVSHDVAVRVAAAIGLGAPDADDTYYHNNKTAGVSIVGSGPLPTIKTLRVGILATTSESSALDQAAQLRTRLEKDGLVVTVVAETLREGVDQTYSTADATGFDGVVVVDGAAALFASTASSPLFPTGRPLQIFVDAYRWGKPVGVCGGKSSEVLDAADVPEDGDGVYSEESVDMFVEEFEKGLATFRFTDRFALDS
notes: recombinant, pET-28-TEV-CATPO; contains heme b; Rz 0.5
B2: T188D (Mycothermus thermophilus; T207D) (protein)
chain: B1 chain with T188D, I484E
notes: as for B1
B3: T188I (Mycothermus thermophilus; T207I) (protein)
chain: B1 chain with T188I, I484E
notes: recombinant, pET-28-TEV-CATPO; contains heme b; Rz 0.4
B4: CATPO (Mycothermus thermophilus) (protein)
chain: B1 chain with I484E
notes: recombinant, pET-28-TEV-CATPO; contains heme d; Rz 0.8
B5: T188A (Mycothermus thermophilus; T207A) (protein)
chain: B1 chain with T188A, I484E
notes: recombinant, pET-28-TEV-CATPO; contains heme d; Rz 0.7

Experiments:
[1] = substrate: CCn1c(=NN=c2sc3cc(S(=O)(=O)O)ccc3n2CC)sc2cc(S(=O)(=O)O)ccc21; test: purified protein, by the assay type; settings: 60.0 °C
[2] = substrate: CC(C)(C)c1ccc(O)c(O)c1; test: Spectrophotometric phenol oxidase assay without H2O2 at pH 7.0 and 60 °C, initial rates fitted to the Michaelis-Menten equation.; format: biochemical
Description: (§1) All inhibition assays were performed in triplicate.

[3] = substrate: Cc1ccc(O)c(O)c1; test: as above; format: biochemical
Description: as §1

[4] = substrate: Oc1ccc(O)cc1; test: as above; format: biochemical
Description: as §1

[5] = substrate: Oc1ccccc1O; test: Spectrophotometric catechol oxidation assay at 420 nm, pH 7.0 and 60 °C; values not normalized to heme content.; format: biochemical
Description: as §1
Tabl e S1 Comparison of gate residues at the entrance of the main channel among large subunit […]
PDB ID e Organism Gate residues
Tabl e S2 K i neti c const ant s
**Catalase activity **Phenol oxidase activity
*KM-app kcat kcat/*KM-app KM kcat kcat/KM
(mM) (s-1) (s-1 M-1) (mM) (s-1) (s-1 M-1) Rz Heme
RZ = A407/A280. T he values were normalized to heme content in each CAT PO variant. T he values in parentheses are for unnor malized val ues a nd shaded in gre y for ease of vie wi ng. *KM-app is the H2O2 concentratio n at Vmax/2 […]
Michaelis–Menten kinetics (Switala & Loewen, 2002).
**One unit of catalase is defined as the amo unt that catalyses the degradation o f 1 µmol H2O2 in 1 min. One unit of phenol oxidase corresponds to the enzyme catalysing the formation of 1 nmol of product per minute.

[6] = substrate: Oc1ccccc1O; test: Phenol oxidase activity (H2O2-independent) measured spectrophotometrically by product formation at pH 7.0, 60 C, Michaelis-Menten fit.; format: biochemical
Description: as §1

[7] = substrate: Oc1ccccc1O; test: as above; format: biochemical; remark: listed apart in the source

Protein	Km [1] [mM]	Km [2] [mM]	Km [3] [mM]	Km [4] [mM]	Km [5] [mM]	Km [6] [mM]	kcat [6] [s⁻¹]	kcat/Km [6] [M⁻¹ s⁻¹]	Km [7] [mM]	kcat [7] [s⁻¹]	kcat/Km [7] [M⁻¹ s⁻¹]	kcat [5] [s⁻¹]	kcat/Km [5] [M⁻¹ s⁻¹]
B1	50 ± 0.5	37 ± 0.4	35 ± 0.7	45 ± 1.3	40	30 ± 1.0	26500 ± 1320	880000 ± 7200	–	–	–	–	–
B2	55 ± 1.0	38 ± 0.5	30 ± 0.1	46 ± 1.0	33	25 ± 1.5	22300 ± 669	890000 ± 7000	–	–	–	–	–
B3	48 ± 0.7	35 ± 0.5	34 ± 1.2	44 ± 0.4	40	31 ± 0.5	28400 ± 1100	920000 ± 4500	–	–	–	–	–
B4	50 ± 1.5	36 ± 1.0	35 ± 0.3	45 ± 1.5	–	–	–	–	33 ± 0.5	7300 ± 365	220000 ± 13000	–	–
B5	52 ± 0.8	37 ± 1.0	35 ± 1.0	46 ± 0.4	33 ± 0.5	–	–	–	–	–	–	6700 ± 335	200000 ± 12000
